The target in test [1] is T1, human ROR2 ECD-Fc fusion protein (human, UniProt Q01974 34-403).
T1 construct: Panning and phage ELISA antigen; also called human ROR2-ECD (phage ELISA); not shown: Fc part and any linker are not described
Nature of the test: summary of the phage clone screening (ELISA).

The target of test [2] is T2, human ROR1 ECD-Fc fusion protein (human, UniProt Q01973 30-406).
T2 construct: not shown: Fc part and any linker are not described
Nature of the test: summary of the phage clone screening (ELISA).

Test [3] has as its target T1, human ROR2 ECD-Fc fusion protein. Nature of the test: phage ELISA on coated ROR2 ECD-Fc.

Results on 8 molecules are retold here after US20180127503A1 (EUREKA THERAPEUTICS, published 2018).

T1 sequence (Q01974 34-403): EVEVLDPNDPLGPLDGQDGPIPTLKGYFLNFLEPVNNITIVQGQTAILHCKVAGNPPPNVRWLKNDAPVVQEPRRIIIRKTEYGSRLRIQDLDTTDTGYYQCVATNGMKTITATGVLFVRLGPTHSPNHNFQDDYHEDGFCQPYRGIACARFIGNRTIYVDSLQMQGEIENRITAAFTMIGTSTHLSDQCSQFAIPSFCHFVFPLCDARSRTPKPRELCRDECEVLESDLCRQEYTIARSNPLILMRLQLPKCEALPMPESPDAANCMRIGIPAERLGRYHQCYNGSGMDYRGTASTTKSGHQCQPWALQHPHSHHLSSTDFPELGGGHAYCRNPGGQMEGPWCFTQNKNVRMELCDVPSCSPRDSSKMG
T2 sequence (Q01973 30-406): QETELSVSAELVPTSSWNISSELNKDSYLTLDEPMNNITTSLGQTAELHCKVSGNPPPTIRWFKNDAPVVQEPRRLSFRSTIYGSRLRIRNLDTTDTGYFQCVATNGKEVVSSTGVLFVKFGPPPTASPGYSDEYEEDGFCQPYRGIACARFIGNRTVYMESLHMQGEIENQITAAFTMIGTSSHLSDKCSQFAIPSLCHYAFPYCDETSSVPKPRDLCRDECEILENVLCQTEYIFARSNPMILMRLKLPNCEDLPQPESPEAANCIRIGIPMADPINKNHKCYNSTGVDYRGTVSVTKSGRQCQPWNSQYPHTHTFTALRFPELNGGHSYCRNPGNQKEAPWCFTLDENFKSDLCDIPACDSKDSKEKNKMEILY

B1: ROR2 clone #084 scFv phage antibody (scFv, V domains shown)
VH: QVQLVESGGGLVQPGGSLRLSCAASGFTFSSYWMSWVRQAPGKGLEWVANIKQDGSEKYYVDSVRGRFTISRDNAKNSLYLQMNSLRAEDTAMYYCARGSFSYDSDLWGQGTLVTVSS
VL: DVVMTQSPLSLPVTLGQPASISCRSSQSLVHSDGNTYLNWFQQRPGQSPRRLIYKVSSRDSGVPDRFSGTGSGTDFTLKISRVEAEDVGVYYCMQTTHWPPTFGQGTKVEIKR
notes: also called clone #84; ROR2-84
Turning to B1, in test [1], the binding result is on record as “binds”.

B2: ROR2 clone #121 scFv phage antibody (scFv, V domains shown)
VH: QVQLVQSGGGLVQPGGSLRLSCAATGFTFSSYAMSWVRQAPGKGLEWVSVISGSGGSTYYADSVKGRFTISRDNSKNTLYLQMNSLRADDTAVYYCARHYYSSDSWGQGTLVTVSS
VL: SYVLTQPPSVSVSPGQTASVTCSGYRLREKYVSWYQQRPGHSPVLVIYEDTKRPSGIPERFSGSNSGDTATLTIRGTQAIDEADYYCQAWDSSVIFGGGTKLTVLG
notes: also called ROR2-121
Consider B2, for which the binding result in test [1] is reported as “binds”.

B3: ROR2 clone #159 scFv phage antibody (scFv, V domains shown)
VH: QMQLVQSGAEVKKPGASVKVSCKASGYTFTSYYMHWVRQAPGQGLEWMGIINPSGGSTSYAQKFQGRVTMTRDTSTSTVYMELSSLRSEDTAVYYCARGGYTGWSPSDPWGQGTLVTVSS
VL: QSALTQPASVSGSPGQSITISCTGTSSDVGGYNYVSWYQQHPGKAPKFMIYDVSKRPSGVSNRFSGSKSGNTASLTISGLQAEDEADYYCGSFTSSITYVFGTGTKVTVLG
notes: also called ROR2-159
B3: the binding result in test [1] and in test [2] was “binds” throughout.

B4: ROR2 clone #093 scFv phage antibody (scFv, V domains shown)
VH: QMQLVQSGGGVVQPGRSLRLSCAASGFTFSNYDMHWVRRAPGKGLEWVAVISYDGSNNYYADSVKGRFTISRDNSKNTLYLQMNSLRAEDTAVYYCARSSAWVGGGFLSGTDDWGQGTLVTVSS
VL: EIVMTQSPATLSLSPGERATLSCGASQSVSSSYLAWYQQKPGLAPRLLIYDTSRRATGIPDRFSGSGSGTDFTLTISRLEPEDFAVYYCLHYGRSPPVTFGGGTKVEIKR
notes: also called clone #93; ROR2-93
For B4, the binding result in test [1] was “binds”.

B5: ROR2 clone #024 scFv phage antibody (scFv, V domains shown)
VH: EVQLVQSGAEVKKPGESLKISCKASGYSFSNYWIGWVRQMPGKGLEWMGIIYPDDSDTRYSPSVQGQVTISADKSISTAYLQWYSLKVADTAKYYCVRPRGAFDIWGQGTTVTVSS
VL: EIVMTQSPATLSVSPGESATLSCRASQGVGINLAWYQQRPGQPPRLLIYDASNRATGIPARFSGSGSGTDFTLTISSLQAEDVAVYYCQQYYSFPWTFGQGTKVEIKR
notes: also called clone #24; ROR2-24
Regarding B5, the binding result in test [3] is on record as “binds”.

B6: ROR2 clone #173 scFv phage antibody (scFv, V domains shown)
VH: QVQLVQSGAEVKKPGASVKVSCKASGYTFTSYGISWVRQAPGQGLEWMGWISAYNGNTNYAQKLQGRVTMTTDTSTSTAYMELRSLRSDDTAVYYCARHLGPMGMYDWSFDKWGQGTLVTVSS
VL: QSVLTQPPSVSVAPGKTARITCGGDNIGRKSVHWYQQKPGQAPVLVIYYDSDRPSGIPERFSGSTSGNTATLTISRVEAGDEADYYCQVWDRSSDLYVFGTGTKVTVLG
notes: also called ROR2-173
For the molecule B6, the binding result in test [1] is recorded as “binds”.

B7: ROR2 clone #016 scFv phage antibody (scFv, V domains shown)
VH: EVQLVQSGAEVKKPGASVKVSCKASGYTFTDYYIHWVRQAPGQGLEWMGWMNPNSGNSVSAQKFQGRVTMTRDTSINTAYMELSSLTSDDTAVYYCARNSEWHPWGYYDYWGQGTLVTVSS
VL: SSELTQDPAVSVALGQTVRITCQGDSLRSYYASWYQQKPGQAPVLVIYGKNNRPSGIPDRFSGSSSGNTASLTITGAQAEDEADYYCNSRDSSGNHLVFGGGTKLTVLG
notes: also called clone #16; ROR2-16
For the molecule B7, the binding result in test [1] and in test [2] was “binds” in each case.

B8: ROR2 clone #096 scFv phage antibody (scFv, V domains shown)
VH: EVQLVQSGGGLVQPGGSLRLSCAASGFSLNDYYMDWVRQAPGEGLEWVGRIRDKAHGDTTEYIASVKDRFIVSRDDSKNSLYLQMNSLKTEDTAMYYCARWVDDYQGYWIWSYHDFWGQGTLVTVSS
VL: EIVLTQSPLSLPVTLGQPASISCRSSQSLAYSDGNTYLNWFHQRPGQSPRRLIYKVSKRDSGVPDRFSGSGSGTDFTLRISRVEAEDVGIYYCMQGTHWPHTFGPGTKVDIKR
notes: also called clone #96; ROR2-96
Consider B8, for which, in test [1], the binding result is listed as “binds”.
